Results on one substance are retold here after article PMC3870192.

Experiment in all cases: purified protein
Holding throughout (type): biochemical, Plenodomus lingam
What all share (conditions): 1 mM [1-14C]DMAPP, 100 mM Tris-HCl pH 8.0, 2% glycerol, 30 °C

Data set [1] concerns COc1cccc2[nH]cc(C[C@H](N)C(=O)O)c12.
Data set [2] has as its system Cc1cccc2c(C[C@H](N)C(=O)O)c[nH]c12.
Data set [3] concerns N[C@@H](Cc1c[nH]c2ccccc12)C(=O)O.

One may read the Km as the concentration of substrate that gives half-maximal velocity. For orientation: kcat/Km means the turnover number divided by the Michaelis constant. Broadly, the kcat is the number of substrate molecules converted per active site and unit of time at saturation. With “SirD (tyrosine O-prenyltransferase; dimethylallyltyrosine synthase) (Plenodomus lingam)”, in data set [1], the Km stood at 5100 ± 2000 µM and the kcat/Km came out at 2.5 M⁻¹ s⁻¹. Also, in data set [2], the Km came out at 2000 ± 400 µM and the kcat/Km was 6.5 M⁻¹ s⁻¹. In data set [3], the Michaelis constant (Km) came to 370 ± 60 µM, the turnover number (kcat) turned out to be 0.095 ± 0.002 s⁻¹ and the specificity constant (kcat/Km) stood at 260 M⁻¹ s⁻¹.
